Experimental data as given in publication PMC7367873, “Dissecting the sequence determinants for dephosphorylation by the catalytic subunits of phosphatases PP1 and PP2A” (Nature Communications, 2020).

B1: HNRNPC (protein, UniProt P07910 2-306, looked up)
Heterogeneous nuclear …: ASNVTNKTDPRSMNSRVFIGNLNTLVVKKSDVEAIFSKYGKIVGCSVHKGFAFVQYVNERNARAAVAGEDGRMIAGQVLDINLAAEPKVNRGKAGVKRSAAEMYGSVTEHPSPSPLLSSSFDLDYDFQRDYYDRMYSYPARVPPPPPIARAVVPSKRQRVSGNTSRRGKSGFNSKSGQRGSSKSGKLKGDDLQAIKKELTQIKQKVDSLLENLEKIEKEQSKQAVEMKNDKSEEEQSSSSVKKDETNVKMESEGGADDSAEEGDLLDDDDNEDRGDDQLELIKDDEKEAEEGEDDRDSANGEDDS
B2: DCD (protein, UniProt P81605 20-110, looked up)
Dermcidin: YDPEAASAPGSGNPCHEASAAQKENAGEDPGLARQAPKPRKQRSSLLEKGLDGAKKAVGGLGKLGKDAVEDLESVGKGAVHDVKDVLDSVL
B3: BRIX1 (protein, UniProt Q8TDN6 1-353, looked up)
Ribosome biogenesis protein …: MAATKRKRRGGFAVQAKKPKRNEIDAEPPAKRHATAEEVEEEERDRIPGPVCKGKWKNKERILIFSSRGINFRTRHLMQDLRMLMPHSKADTKMDRKDKLFVINEVCEMKNCNKCIYFEAKKKQDLYMWLSNSPHGPSAKFLVQNIHTLAELKMTGNCLKGSRPLLSFDPAFDELPHYALLKELLIQIFSTPRYHPKSQPFVDHVFTFTILDNRIWFRNFQIIEEDAALVEIGPRFVLNLIKIFQGSFGGPTLYENPHYQSPNMHRRVIRSITAAKYREKQQVKDVQKLRKKEPKTLLPHDPTADVFVTPAEEKPIEIQWVKPEPKVDLKARKKRIYKRQRKMKQRMDSGKTK
B4: BASP1 (protein, UniProt P80723 2-227, looked up)
Brain acid soluble protein 1: GGKLSKKKKGYNVNDEKAKEKDKKAEGAATEEEGTPKESEPQAAAEPAEAKEGKEKPDQDAEGKAEEKEGEKDAAAAKEEAPKAEPEKTEGAAEAKAEPPKAPEQEQAAPGPAAGGEAPKAAEAAAAPAESAAPAAGEEPSKEEGEPKKTEAPAAPAAQETKSDGAPASDSKPGSSEAAPSSKETPAATEAPSSTPKAQGPAASAEEPKPVEAPAANSDQTVTVKE
B5: MAP4 (protein, UniProt P27816 2-1152, looked up)
Microtubule-associated …: ADLSLADALTEPSPDIEGEIKRDFIATLEAEAFDDVVGETVGKTDYIPLLDVDEKTGNSESKKKPCSETSQIEDTPSSKPTLLANGGHGVEGSDTTGSPTEFLEEKMAYQEYPNSQNWPEDTNFCFQPEQVVDPIQTDPFKMYHDDDLADLVFPSSATADTSIFAGQNDPLKDSYGMSPCNTAVVPQGWSVEALNSPHSESFVSPEAVAEPPQPTAVPLELAKEIEMASEERPPAQALEIMMGLKTTDMAPSKETEMALAKDMALATKTEVALAKDMESPTKLDVTLAKDMQPSMESDMALVKDMELPTEKEVALVKDVRWPTETDVSSAKNVVLPTETEVAPAKDVTLLKETERASPIKMDLAPSKDMGPPKENKKETERASPIKMDLAPSKDMGPPKENKIVPAKDLVLLSEIEVAQANDIISSTEISSAEKVALSSETEVALARDMTLPPETNVILTKDKALPLEAEVAPVKDMAQLPETEIAPAKDVAPSTVKEVGLLKDMSPLSETEMALGKDVTPPPETEVVLIKNVCLPPEMEVALTEDQVPALKTEAPLAKDGVLTLANNVTPAKDVPPLSETEATPVPIKDMEIAQTQKGISEDSHLESLQDVGQSAAPTFMISPETVTGTGKKCSLPAEEDSVLEKLGERKPCNSQPSELSSETSGIARPEEGRPVVSGTGNDITTPPNKELPPSPEKKTKPLATTQPAKTSTSKAKTQPTSLPKQPAPTTIGGLNKKPMSLASGLVPAAPPKRPAVASARPSILPSKDVKPKPIADAKAPEKRASPSKPASAPASRSGSKSTQTVAKTTTAAAVASTGPSSRSPSTLLPKKPTAIKTEGKPAEVKKMTAKSVPADLSRPKSTSTSSMKKTTTLSGTAPAAGVVPSRVKATPMPSRPSTTPFIDKKPTSAKPSSTTPRLSRLATNTSAPDLKNVRSKVGSTENIKHQPGGGRAKVEKKTEAAATTRKPESNAVTKTAGPIASAQKQPAGKVQIVSKKVSYSHIQSKCGSKDNIKHVPGGGNVQIQNKKVDISKVSSKCGSKANIKHKPGGGDVKIESQKLNFKEKAQAKVGSLDNVGHLPAGGAVKTEGGGSEAPLCPGPPAGEEPAISEAAPEAGAPTSASGLNGHPTLSGGGDQREAQTLDSQIQETSI
B6: SRPRB (protein, UniProt Q9Y5M8 1-271, looked up)
Signal recognition particle …: MASADSRRVADGGGAGGTFQPYLDTLRQELQQTDPTLLSVVVAVLAVLLTLVFWKLIRSRRSSQRAVLLVGLCDSGKTLLFVRLLTGLYRDTQTSITDSCAVYRVNNNRGNSLTLIDLPGHESLRLQFLERFKSSARAIVFVVDSAAFQREVKDVAEFLYQVLIDSMGLKNTPSFLIACNKQDIAMAKSAKLIQQQLEKELNTLRVTRSAAPSTLDSSSTAPAQLGKKGKEFEFSQLPLKVEFLECSAKGGRGDVGSADIQDLEKWLAKIA
B7: DHX15 (protein, UniProt O43143 1-795, looked up)
ATP-dependent RNA helicase …: MSKRHRLDLGEDYPSGKKRAGTDGKDRDRDRDREDRSKDRDRERDRGDREREREKEKEKELRASTNAMLISAGLPPLKASHSAHSTHSAHSTHSTHSAHSTHAGHAGHTSLPQCINPFTNLPHTPRYYDILKKRLQLPVWEYKDRFTDILVRHQSFVLVGETGSGKTTQIPQWCVEYMRSLPGPKRGVACTQPRRVAAMSVAQRVADEMDVMLGQEVGYSIRFEDCSSAKTILKYMTDGMLLREAMNDPLLERYGVIILDEAHERTLATDILMGVLKEVVRQRSDLKVIVMSATLDAGKFQIYFDNCPLLTIPGRTHPVEIFYTPEPERDYLEAAIRTVIQIHMCEEEEGDLLLFLTGQEEIDEACKRIKREVDDLGPEVGDIKIIPLYSTLPPQQQQRIFEPPPPKKQNGAIGRKVVVSTNIAETSLTIDGVVFVIDPGFAKQKVYNPRIRVESLLVTAISKASAQQRAGRAGRTRPGKCFRLYTEKAYKTEMQDNTYPEILRSNLGSVVLQLKKLGIDDLVHFDFMDPPAPETLMRALELLNYLAALNDDGDLTELGSMMAEFPLDPQLAKMVIASCDYNCSNEVLSITAMLSVPQCFVRPTEAKKAADEAKMRFAHIDGDHLTLLNVYHAFKQNHESVQWCYDNFINYRSLMSADNVRQQLSRIMDRFNLPRRSTDFTSRDYYINIRKALVTGYFMQVAHLERTGHYLTVKDNQVVQLHPSTVLDHKPEWVLYNEFVLTTKNYIRTCTDIKPEWLVKIAPQYYDMSNFPQCEAKRQLDRIIAKLQSKEYSQY
B8: GNAS (protein, UniProt P63092 2-394, looked up)
Guanine nucleotide-binding …: GCLGNSKTEDQRNEEKAQREANKKIEKQLQKDKQVYRATHRLLLLGAGESGKSTIVKQMRILHVNGFNGEGGEEDPQAARSNSDGEKATKVQDIKNNLKEAIETIVAAMSNLVPPVELANPENQFRVDYILSVMNVPDFDFPPEFYEHAKALWEDEGVRACYERSNEYQLIDCAQYFLDKIDVIKQADYVPSDQDLLRCRVLTSGIFETKFQVDKVNFHMFDVGGQRDERRKWIQCFNDVTAIIFVVASSSYNMVIREDNQTNRLQEALNLFKSIWNNRWLRTISVILFLNKQDLLAEKVLAGKSKIEDYFPEFARYTTPEDATPEPGEDPRVTRAKYFIRDEFLRISTASGDGRHYCYPHFTCAVDTENIRRVFNDCRDIIQRMHLRQYELL
B9: SPATS2 (protein, UniProt Q86XZ4 1-545, looked up)
Spermatogenesis-associated …: MSRKQNQKDSSGFIFDLQSNTVLAQGGAFENMKEKINAVRAIVPNKSNNEIILVLQHFDNCVDKTVQAFMEGSASEVLKEWTVTGKKKNKKKKNKPKPAAEPSNGIPDSSKSVSIQEEQSAPSSEKGGMNGYHVNGAINDTESVDSLSEGLETLSIDARELEDPESAMLDTLDRTGSMLQNGVSDFETKSLTMHSIHNSQQPRNAAKSLSRPTTETQFSNMGMEDVPLATSKKLSSNIEKSVKDLQRCTVSLARYRVVVKEEMDASIKKMKQAFAELESCLMDREVALLAEMDKVKAEAMEILLSRQKKAELLKKMTHVAVQMSEQQLVELRADIKHFVSERKYDEDLGRVARFTCDVETLKKSIDSFGQVSHPKNSYSTRSRCSSVTSVSLSSPSDASAASSSTCASPPSLTSANKKNFAPGETPAAIANSSGQPYQPLREVLPGNRRGGQGYRPQGQKSNDPMNQGRHDSMGRYRNSSWYSSGSRYQSAPSQAPGNTIERGQTHSAGTNGTGVSMEPSPPTPSFKKGLPQRKPRTSQTEAVNS
B10: VAPA (protein, UniProt Q9P0L0 2-249, looked up)
Vesicle-associated membrane …: ASASGAMAKHEQILVLDPPTDLKFKGPFTDVVTTNLKLRNPSDRKVCFKVKTTAPRRYCVRPNSGIIDPGSTVTVSVMLQPFDYDPNEKSKHKFMVQTIFAPPNTSDMEAVWKEAKPDELMDSKLRCVFEMPNENDKLNDMEPSKAVPLNASKQDGPMPKPHSVSLNDTETRKLMEECKRLQGEMMKLSEENRHLRDEGLRLRKVAHSDKPGSTSTASFRDNVTSPLPSLLVVIAAIFIGFFLGKFIL

These molecules were tested on GFP-14-3-3β and its binding proteins (assay: GFP-14-3-3β co-IP with LC-MS/MS label-free quantification, untreated versus PP1c-treated). Conditions: GFP-14-3-3β co-IP LC-MS/MS; PP1 vs untreated; student's t-test; label-free quantification, 3 replicates each.
Set-up: species or system human

| Molecule | Difference (log2), PP1 vs untreated |
| --- | --- |
| B1 | -0.69 log2 |
| B2 | -0.6713 log2 |
| B3 | -0.6423 log2 |
| B4 | -0.7159 log2 |
| B5 | -0.5793 log2 |
| B6 | -0.6831 log2 |
| B7 | -0.5557 log2 |
| B8 | -0.7154 log2 |
| B9 | -0.5886 log2 |

Same assay, conditions: log2 difference; pairwise comparison PP1 vs untreated, label-free quantification, 3 replicates each

| Molecule | Difference (log2), PP1 vs untreated |
| --- | --- |
| B10 | 1.6514 |

Each molecule was assayed on GFP-14-3-3β (assay: GFP-14-3-3β co-IP with LC-MS/MS, untreated GFP-14-3-3β versus GFP control (14-3-3 interactome)). Conditions: GFP-14-3-3β co-IP LC-MS/MS; untreated vs GFP; student's t-test; label-free quantification, 3 replicates each.
Type: binding, human

| Molecule | Difference (log2), untreated vs GFP |
| --- | --- |
| B1 | 1.297 log2 |
| B2 | -1.7359 log2 |
| B3 | 1.65 log2 |
| B4 | -1.2737 log2 |
| B5 | 0.9373 log2 |
| B6 | 1.397 log2 |
| B7 | 1.871 log2 |
| B8 | 0.1054 log2 |
| B9 | 1.275 log2 |

Same assay, conditions: log2 difference; pairwise comparison untreated vs GFP, label-free quantification, 3 replicates each

| Molecule | Difference (log2), untreated vs GFP |
| --- | --- |
| B10 | -1.034 |
